Measurements: patent publication US20070081999A1

How the values were obtained:
[1] = molecular target: human von Willebrand factor (vWF) (human) (UniProt P04275); experiment: competition ELISA: inhibition of plasma or purified human vWF binding to coated human collagen type I
[2] = molecular target: human von Willebrand factor (vWF) (human) (UniProt P04275); experiment: cell-based or functional assay
[3] = molecular target: human placental collagen type I (fibrillar) (human) (UniProt P02452); experiment: ex vivo ELISA on coated human collagen type I, baboon plasma 30 min after 300 µg/kg mAb 82D6A3, against the pre sample
[4] = molecular target: human placental collagen type I (fibrillar) (human) (UniProt P02452); experiment: ex vivo ELISA on coated human collagen type I, baboon plasma 150 min after 600 µg/kg mAb 82D6A3, against the pre sample
[5] = molecular target: human placental collagen type I (fibrillar) (human) (UniProt P02452); experiment: ex vivo ELISA on coated human collagen type I, baboon plasma, 300 µg/kg mAb 82D6A3 group, 0 min (before dosing; pre sample set as 100%)
[6] = molecular target: human placental collagen type I (fibrillar) (human) (UniProt P02452); experiment: ex vivo ELISA on coated human collagen type I, baboon plasma, 600 µg/kg mAb 82D6A3 group, 0 min (before dosing; pre sample set as 100%)
[7] = molecular target: human placental collagen type I (fibrillar) (human) (UniProt P02452); experiment: ex vivo ELISA on coated human collagen type I, baboon plasma, 100 µg/kg mAb 82D6A3 group, 0 min (before dosing; pre sample set as 100%)
[8] = molecular target: human placental collagen type I (fibrillar) (human) (UniProt P02452); experiment: ex vivo ELISA on coated human collagen type I, baboon plasma 300 min after 600 µg/kg mAb 82D6A3, against the pre sample
[9] = molecular target: human placental collagen type I (fibrillar) (human) (UniProt P02452); experiment: ex vivo ELISA on coated human collagen type I, baboon plasma 30 min after 600 µg/kg mAb 82D6A3, against the pre sample
[10] = molecular target: human placental collagen type I (fibrillar) (human) (UniProt P02452); experiment: ex vivo ELISA on coated human collagen type I, baboon plasma 48 h after 300 µg/kg mAb 82D6A3, against the pre sample
[11] = molecular target: human placental collagen type I (fibrillar) (human) (UniProt P02452); experiment: ex vivo ELISA on coated human collagen type I, baboon plasma 300 min after 300 µg/kg mAb 82D6A3, against the pre sample
[12] = molecular target: human placental collagen type I (fibrillar) (human) (UniProt P02452); experiment: ex vivo ELISA on coated human collagen type I, baboon plasma 60 min after 600 µg/kg mAb 82D6A3, against the pre sample
[13] = molecular target: human placental collagen type I (fibrillar) (human) (UniProt P02452); experiment: ex vivo ELISA on coated human collagen type I, baboon plasma 24 h after 300 µg/kg mAb 82D6A3, against the pre sample
[14] = molecular target: human placental collagen type I (fibrillar) (human) (UniProt P02452); experiment: ex vivo ELISA on coated human collagen type I, baboon plasma 60 min after 300 µg/kg mAb 82D6A3, against the pre sample
[15] = molecular target: human placental collagen type I (fibrillar) (human) (UniProt P02452); experiment: ex vivo ELISA on coated human collagen type I, baboon plasma 150 min after 300 µg/kg mAb 82D6A3, against the pre sample
[16] = molecular target: human placental collagen type I (fibrillar) (human) (UniProt P02452); experiment: ex vivo ELISA on coated human collagen type I, baboon plasma 24 h after 600 µg/kg mAb 82D6A3, against the pre sample
[17] = molecular target: human placental collagen type I (fibrillar) (human) (UniProt P02452); experiment: ex vivo ELISA on coated human collagen type I, baboon plasma 30 min after 100 µg/kg mAb 82D6A3, against the pre sample
[18] = molecular target: human placental collagen type I (fibrillar) (human) (UniProt P02452); experiment: ex vivo ELISA on coated human collagen type I, baboon plasma 60 min after 100 µg/kg mAb 82D6A3, against the pre sample
[19] = molecular target: baboon von Willebrand factor (vWF) (baboon); experiment: ex vivo occupancy ELISA, baboon plasma, 600 µg/kg, 60 min
Chain of baboon von Willebrand factor (vWF) (baboon) (A0A096 entry or part of it limits assumed, form in doubt): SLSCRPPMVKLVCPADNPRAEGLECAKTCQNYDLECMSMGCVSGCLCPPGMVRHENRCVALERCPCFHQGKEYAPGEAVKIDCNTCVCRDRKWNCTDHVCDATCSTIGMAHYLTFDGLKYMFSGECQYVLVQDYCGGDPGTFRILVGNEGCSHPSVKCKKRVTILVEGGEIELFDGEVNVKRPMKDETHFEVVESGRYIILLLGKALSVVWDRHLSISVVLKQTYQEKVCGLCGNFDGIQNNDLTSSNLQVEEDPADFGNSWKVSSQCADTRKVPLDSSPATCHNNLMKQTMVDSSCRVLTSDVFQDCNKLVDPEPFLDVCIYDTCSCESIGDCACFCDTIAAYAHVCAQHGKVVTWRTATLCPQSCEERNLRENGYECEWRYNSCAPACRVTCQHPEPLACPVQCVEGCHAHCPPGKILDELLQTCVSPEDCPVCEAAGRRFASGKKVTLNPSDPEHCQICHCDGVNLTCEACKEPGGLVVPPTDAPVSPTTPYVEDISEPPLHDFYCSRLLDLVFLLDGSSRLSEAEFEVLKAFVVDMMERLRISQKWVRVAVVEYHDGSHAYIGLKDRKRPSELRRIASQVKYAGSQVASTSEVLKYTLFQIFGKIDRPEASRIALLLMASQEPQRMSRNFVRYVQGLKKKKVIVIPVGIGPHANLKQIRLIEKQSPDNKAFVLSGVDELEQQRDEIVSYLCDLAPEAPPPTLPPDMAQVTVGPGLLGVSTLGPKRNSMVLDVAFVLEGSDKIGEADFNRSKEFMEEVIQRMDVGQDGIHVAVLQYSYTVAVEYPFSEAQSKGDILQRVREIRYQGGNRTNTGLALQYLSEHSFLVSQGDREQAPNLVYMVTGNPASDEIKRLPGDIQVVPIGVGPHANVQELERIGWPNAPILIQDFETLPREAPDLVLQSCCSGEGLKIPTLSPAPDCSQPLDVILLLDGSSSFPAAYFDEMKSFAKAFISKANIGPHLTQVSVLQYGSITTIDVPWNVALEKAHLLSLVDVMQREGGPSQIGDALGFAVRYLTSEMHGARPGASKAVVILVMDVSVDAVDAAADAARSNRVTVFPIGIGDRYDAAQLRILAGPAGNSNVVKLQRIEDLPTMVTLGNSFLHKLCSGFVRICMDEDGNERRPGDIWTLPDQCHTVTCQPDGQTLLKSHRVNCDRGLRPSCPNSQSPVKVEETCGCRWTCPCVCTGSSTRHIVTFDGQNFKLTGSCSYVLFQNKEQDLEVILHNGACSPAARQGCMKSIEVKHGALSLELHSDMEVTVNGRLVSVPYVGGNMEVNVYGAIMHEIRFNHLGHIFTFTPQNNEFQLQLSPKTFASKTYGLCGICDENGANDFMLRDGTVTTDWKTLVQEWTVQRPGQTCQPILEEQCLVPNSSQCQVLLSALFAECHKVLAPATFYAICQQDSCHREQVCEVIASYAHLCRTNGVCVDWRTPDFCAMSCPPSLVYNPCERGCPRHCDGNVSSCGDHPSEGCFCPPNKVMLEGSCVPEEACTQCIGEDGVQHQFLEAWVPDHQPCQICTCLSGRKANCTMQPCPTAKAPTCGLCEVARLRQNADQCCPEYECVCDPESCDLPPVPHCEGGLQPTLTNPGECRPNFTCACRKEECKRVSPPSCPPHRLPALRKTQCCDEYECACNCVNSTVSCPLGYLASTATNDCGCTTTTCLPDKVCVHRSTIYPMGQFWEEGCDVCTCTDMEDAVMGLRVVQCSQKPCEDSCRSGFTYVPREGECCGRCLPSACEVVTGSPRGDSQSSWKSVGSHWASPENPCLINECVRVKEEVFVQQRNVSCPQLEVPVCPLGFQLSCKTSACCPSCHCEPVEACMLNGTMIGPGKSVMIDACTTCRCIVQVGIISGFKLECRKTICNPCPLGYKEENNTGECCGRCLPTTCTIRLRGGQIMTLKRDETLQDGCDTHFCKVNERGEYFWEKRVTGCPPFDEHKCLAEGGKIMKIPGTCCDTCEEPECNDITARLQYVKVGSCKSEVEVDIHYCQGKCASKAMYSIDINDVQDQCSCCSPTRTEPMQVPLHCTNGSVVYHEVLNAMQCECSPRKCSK

[20] = molecular target: baboon von Willebrand factor (vWF) (baboon); experiment: ex vivo occupancy ELISA, baboon plasma, 300 µg/kg, 24 h
[21] = molecular target: baboon von Willebrand factor (vWF) (baboon); experiment: ex vivo occupancy ELISA, baboon plasma, 300 µg/kg, 300 min
[22] = molecular target: baboon von Willebrand factor (vWF) (baboon); experiment: ex vivo occupancy ELISA (vWF captured, bound mAb detected), baboon plasma, 100 µg/kg group, 0 min (before dosing)
[23] = molecular target: baboon von Willebrand factor (vWF) (baboon); experiment: ex vivo occupancy ELISA, baboon plasma, 100 µg/kg, 60 min
[24] = molecular target: baboon von Willebrand factor (vWF) (baboon); experiment: ex vivo occupancy ELISA, baboon plasma, 300 µg/kg, 150 min
[25] = molecular target: baboon von Willebrand factor (vWF) (baboon); experiment: ex vivo occupancy ELISA, baboon plasma, 300 µg/kg, 48 h
[26] = molecular target: baboon von Willebrand factor (vWF) (baboon); experiment: ex vivo occupancy ELISA, baboon plasma, 600 µg/kg, 300 min
[27] = molecular target: baboon von Willebrand factor (vWF) (baboon); experiment: ex vivo ELISA on coated human collagen type I, baboon plasma 60 min after 300 µg/kg mAb 82D6A3
[28] = molecular target: baboon von Willebrand factor (vWF) (baboon); experiment: ex vivo occupancy ELISA, baboon plasma, 600 µg/kg, 150 min
[29] = molecular target: baboon von Willebrand factor (vWF) (baboon); experiment: ex vivo occupancy ELISA, baboon plasma, 300 µg/kg group, 0 min (before dosing)
[30] = molecular target: baboon von Willebrand factor (vWF) (baboon); experiment: ex vivo ELISA on coated human collagen type I, baboon plasma 1 hour after 100 µg/kg mAb 82D6A3
[31] = molecular target: baboon von Willebrand factor (vWF) (baboon); experiment: ex vivo occupancy ELISA, baboon plasma, 600 µg/kg group, 0 min (before dosing)
[32] = molecular target: baboon von Willebrand factor (vWF) (baboon); experiment: ex vivo occupancy ELISA, baboon plasma, 300 µg/kg, 60 min
[33] = molecular target: baboon von Willebrand factor (vWF) (baboon); experiment: ex vivo vWF-occupancy ELISA on baboon plasma against 82D6A3 plasma level
[34] = molecular target: baboon von Willebrand factor (vWF) (baboon); experiment: ex vivo ELISA on coated human collagen type I, baboon plasma 60 min after 600 µg/kg mAb 82D6A3
[35] = molecular target: baboon von Willebrand factor (vWF) (baboon); experiment: ex vivo occupancy ELISA, baboon plasma, 300 µg/kg, 30 min
[36] = molecular target: baboon von Willebrand factor (vWF) (baboon); experiment: ex vivo occupancy ELISA, baboon plasma, 600 µg/kg, 24 h
[37] = molecular target: baboon von Willebrand factor (vWF) (baboon); experiment: ex vivo occupancy ELISA, baboon plasma, 100 µg/kg, 30 min
[38] = molecular target: baboon von Willebrand factor (vWF) (baboon); experiment: ex vivo occupancy ELISA, baboon plasma, 600 µg/kg, 30 min

Chain of human von Willebrand factor (vWF) (human) (P04275 764-2813 limits assumed): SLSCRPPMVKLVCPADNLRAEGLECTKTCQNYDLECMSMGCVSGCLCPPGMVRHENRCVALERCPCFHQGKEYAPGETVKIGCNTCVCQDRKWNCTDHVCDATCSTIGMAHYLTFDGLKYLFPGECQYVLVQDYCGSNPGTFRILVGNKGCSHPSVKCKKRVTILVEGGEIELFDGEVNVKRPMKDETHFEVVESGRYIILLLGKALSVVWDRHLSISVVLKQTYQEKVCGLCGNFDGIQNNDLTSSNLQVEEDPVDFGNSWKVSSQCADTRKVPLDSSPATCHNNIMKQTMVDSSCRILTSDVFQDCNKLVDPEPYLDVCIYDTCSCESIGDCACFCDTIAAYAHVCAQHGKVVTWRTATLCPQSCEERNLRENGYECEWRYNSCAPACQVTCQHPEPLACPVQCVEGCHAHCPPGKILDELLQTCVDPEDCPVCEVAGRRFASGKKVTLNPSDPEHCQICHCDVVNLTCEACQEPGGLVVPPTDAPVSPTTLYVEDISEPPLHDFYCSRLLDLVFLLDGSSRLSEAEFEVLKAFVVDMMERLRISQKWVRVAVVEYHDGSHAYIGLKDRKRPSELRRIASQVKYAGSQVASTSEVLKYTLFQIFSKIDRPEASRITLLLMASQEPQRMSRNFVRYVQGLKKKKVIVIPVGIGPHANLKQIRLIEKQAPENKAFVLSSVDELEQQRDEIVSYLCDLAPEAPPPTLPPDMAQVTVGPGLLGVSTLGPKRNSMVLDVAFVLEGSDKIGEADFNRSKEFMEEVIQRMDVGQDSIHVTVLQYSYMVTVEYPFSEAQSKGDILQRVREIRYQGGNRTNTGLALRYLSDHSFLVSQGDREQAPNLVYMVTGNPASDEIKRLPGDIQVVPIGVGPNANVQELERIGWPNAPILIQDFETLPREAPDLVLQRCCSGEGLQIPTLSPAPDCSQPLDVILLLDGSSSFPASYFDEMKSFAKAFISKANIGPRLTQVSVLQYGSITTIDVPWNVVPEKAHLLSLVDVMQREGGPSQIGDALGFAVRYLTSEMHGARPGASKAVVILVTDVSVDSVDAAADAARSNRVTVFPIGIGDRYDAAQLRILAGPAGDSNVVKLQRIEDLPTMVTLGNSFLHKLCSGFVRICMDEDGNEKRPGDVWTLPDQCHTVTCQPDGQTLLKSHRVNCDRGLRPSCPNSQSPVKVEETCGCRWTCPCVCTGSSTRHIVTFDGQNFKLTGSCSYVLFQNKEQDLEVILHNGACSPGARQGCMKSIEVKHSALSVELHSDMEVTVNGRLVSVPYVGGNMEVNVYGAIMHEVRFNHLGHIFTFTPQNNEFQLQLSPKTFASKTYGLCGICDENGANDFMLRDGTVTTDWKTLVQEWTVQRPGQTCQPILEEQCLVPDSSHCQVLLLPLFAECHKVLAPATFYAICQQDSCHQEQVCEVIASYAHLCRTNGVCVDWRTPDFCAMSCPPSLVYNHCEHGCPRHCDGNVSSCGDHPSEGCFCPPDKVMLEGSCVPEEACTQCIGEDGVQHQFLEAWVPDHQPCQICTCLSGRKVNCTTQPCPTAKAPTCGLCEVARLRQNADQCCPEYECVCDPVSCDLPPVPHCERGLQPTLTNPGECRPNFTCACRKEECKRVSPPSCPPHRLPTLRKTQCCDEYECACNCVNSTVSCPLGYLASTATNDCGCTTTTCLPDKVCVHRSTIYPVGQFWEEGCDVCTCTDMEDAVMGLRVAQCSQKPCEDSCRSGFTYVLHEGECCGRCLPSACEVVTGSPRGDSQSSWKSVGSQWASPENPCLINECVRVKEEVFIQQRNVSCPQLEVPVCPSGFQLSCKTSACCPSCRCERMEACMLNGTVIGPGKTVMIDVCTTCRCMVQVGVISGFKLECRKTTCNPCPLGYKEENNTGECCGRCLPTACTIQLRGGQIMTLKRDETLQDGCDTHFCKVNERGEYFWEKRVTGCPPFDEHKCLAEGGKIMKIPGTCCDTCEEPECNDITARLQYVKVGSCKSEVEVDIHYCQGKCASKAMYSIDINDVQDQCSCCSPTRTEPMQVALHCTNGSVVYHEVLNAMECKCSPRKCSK

Q: How did the IC50 [1] turn out when 82D6A3 F(ab) fragment (Fab) was run?
A: Its IC50 is 1 µg/mL.

Q: What about the platelet deposition onto human collagen type I in flow, shear rate 1300 s^-1 [2] of the same substance?
A: The platelet deposition onto human collagen type I in flow, shear rate 1300 s^-1 was 10 µg/mL.

Q: With “baboon von Willebrand factor (vWF), A0A096N8H2 764-2813” as the substance, how does the collagen binding (%) [3] read?
A: The collagen binding (%) was 4%.

Q: What about the collagen binding (%) [4] of the same substance?
A: The collagen binding (%) was 3.52%.

Q: And the collagen binding (%) [5]?
A: Its collagen binding (%) is 101%.

Q: What about the collagen binding (%) [6] of the same substance?
A: The collagen binding (%) was 100%.

Q: What about the collagen binding (%) [7] of the same substance?
A: The collagen binding (%) was 101%.

Q: And the collagen binding (%) [8]?
A: The collagen binding (%) was 4%.

Q: What about the collagen binding (%) [9] of the same substance?
A: Its collagen binding (%) is 4%.

Q: And the collagen binding (%) [10]?
A: Its collagen binding (%) is 93%.

Q: And the collagen binding (%) [11]?
A: Its collagen binding (%) is 4%.

Q: And the collagen binding (%) [12]?
A: Its collagen binding (%) is 3.5%.

Q: And the collagen binding (%) [13]?
A: The collagen binding (%) was 91%.

Q: What about the collagen binding (%) [14] of the same substance?
A: Its collagen binding (%) is 4%.

Q: And the collagen binding (%) [15]?
A: The collagen binding (%) was 4%.

Q: What about the collagen binding (%) [16] of the same substance?
A: Its collagen binding (%) is 45%.

Q: What about the collagen binding (%) [17] of the same substance?
A: Its collagen binding (%) is 64%.

Q: What about the collagen binding (%) [18] of the same substance?
A: The collagen binding (%) was 69%.

Q: “murine anti-human vWF monoclonal antibody mAb 82D6A3” was tested. Which vWF occupancy (%) [19] did it give?
A: Its vWF occupancy (%) is 96%.

Q: And the vWF occupancy (%) [20]?
A: The vWF occupancy (%) was 74%.

Q: What about the vWF occupancy (%) [21] of the same substance?
A: The vWF occupancy (%) was 94%.

Q: And the vWF occupancy (%) [22]?
A: Its vWF occupancy (%) is 2.3%.

Q: What about the vWF occupancy (%) [23] of the same substance?
A: The vWF occupancy (%) was 80%.

Q: And the vWF occupancy (%) [24]?
A: Its vWF occupancy (%) is 101%.

Q: What about the vWF occupancy (%) [25] of the same substance?
A: The vWF occupancy (%) was 63%.

Q: What about the vWF occupancy (%) [26] of the same substance?
A: Its vWF occupancy (%) is 97%.

Q: What about the ex vivo inhibition of the vWF-collagen interaction (%) [27] of the same substance?
A: The ex vivo inhibition of the vWF-collagen interaction (%) was 96%.

Q: And the IC50 [1]?
A: The IC50 was 0.02 µg/mL.

Q: What about the vWF occupancy (%) [28] of the same substance?
A: Its vWF occupancy (%) is 97%.

Q: And the vWF occupancy (%) [29]?
A: Its vWF occupancy (%) is 2.3%.

Q: And the ex vivo inhibition of the vWF-collagen binding (%) [30]?
A: The ex vivo inhibition of the vWF-collagen binding (%) was 31%.

Q: And the vWF occupancy (%) [31]?
A: Its vWF occupancy (%) is 6.9%.

Q: What about the platelet deposition onto human collagen type I in flow, shear rate 1300 s^-1 [2] of the same substance?
A: The platelet deposition onto human collagen type I in flow, shear rate 1300 s^-1 was 1 to 5 µg/mL.

Q: And the vWF occupancy (%) [32]?
A: The vWF occupancy (%) was 99%.

Q: What about the plasma level from which vWF-occupancy is maximal [33] of the same substance?
A: Its plasma level from which vWF-occupancy is maximal is 1 µg/mL.

Q: And the ex vivo inhibition of the vWF-collagen interaction (%) [34]?
A: Its ex vivo inhibition of the vWF-collagen interaction (%) is 96%.

Q: What about the vWF occupancy (%) [35] of the same substance?
A: The vWF occupancy (%) was 102%.

Q: And the vWF occupancy (%) [36]?
A: The vWF occupancy (%) was 88%.

Q: What about the vWF occupancy (%) [37] of the same substance?
A: Its vWF occupancy (%) is 80%.

Q: And the vWF occupancy (%) [38]?
A: Its vWF occupancy (%) is 96%.
